Measured values: patent US20030054488A1 (published 2003)

How the values were obtained:
[1] = molecular target: T1, HeLa1 beta-galactosidase-derived fusion protein containing the N-terminal 150 residues of GPBP (human, UniProt Q5R6M6 1-150 (Pongo abelii entry)); assay: lambda-gt11 expression library filters overlaid with GPpep1, detected with monoclonal antibody
T1 construct: Expressed from the lambda-gt11 clone on library filters and as a lysogen in E. coli Y1089; also called HeLa1 lambda-gt11 fusion protein; not shown: beta-galactosidase part encoded by the lambda-gt11 vector
T1 sequence: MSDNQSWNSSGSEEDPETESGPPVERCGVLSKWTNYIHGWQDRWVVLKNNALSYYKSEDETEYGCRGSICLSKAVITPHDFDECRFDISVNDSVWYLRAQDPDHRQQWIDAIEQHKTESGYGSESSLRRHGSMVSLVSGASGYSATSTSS
Protocol: Isolation and characterization of cDNA clones encoding human GPBP—Several human λ-gt11 cDNA expression libraries (eye, fetal and adult lung, kidney and HeLa S3, from CLONTECH) were probed for cDNAs encoding proteins interacting with GPpep1. Nitrocellulose filters (Millipore) prepared following standard immunoscreening procedures were blocked and incubated with 1-10 nmoles per ml of GPpep1 at 37° C. Specifically bound GPpep1 was detected using M3/1A monoclonal antibodies (7). A single clone was identified in the HeLa-derived library (HeLa1). Specificity of fusion protein binding was confirmed by similar binding to recombinant eukaryotic human GP antigen. The EcoRI cDNA insert of HeLa1 (0.5-kb) was used to further screen the same library and to isolate overlapping cDNAs. The largest cDNA (2.4-kb) containing the entire cDNA of HeLa1 (n4′) was fully sequenced.

[2] = molecular target: T2, rMBP Ser to Ala mutant in position 57, P02686
T2 chain: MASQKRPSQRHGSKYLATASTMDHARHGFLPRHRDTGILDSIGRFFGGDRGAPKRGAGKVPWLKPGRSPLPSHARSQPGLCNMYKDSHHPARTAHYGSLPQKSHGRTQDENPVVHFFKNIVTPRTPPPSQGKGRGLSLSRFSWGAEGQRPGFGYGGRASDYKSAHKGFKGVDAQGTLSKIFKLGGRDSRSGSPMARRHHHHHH

GPpep1 = molecular target: T3, GPpep1
T3 chain: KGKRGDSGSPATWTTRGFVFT

[3] = molecular target: T4, recombinant 21 kDa myelin basic protein (rMBP), P02686
T4 chain: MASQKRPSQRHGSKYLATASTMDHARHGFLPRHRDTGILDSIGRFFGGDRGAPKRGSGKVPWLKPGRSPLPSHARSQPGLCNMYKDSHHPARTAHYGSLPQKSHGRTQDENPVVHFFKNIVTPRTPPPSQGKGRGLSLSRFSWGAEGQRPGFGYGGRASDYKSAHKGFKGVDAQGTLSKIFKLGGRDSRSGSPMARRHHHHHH

[4] = molecular target: T5, Human recombinant GP antigen (rGP) produced in 293 cells, Q01955
T5 chain: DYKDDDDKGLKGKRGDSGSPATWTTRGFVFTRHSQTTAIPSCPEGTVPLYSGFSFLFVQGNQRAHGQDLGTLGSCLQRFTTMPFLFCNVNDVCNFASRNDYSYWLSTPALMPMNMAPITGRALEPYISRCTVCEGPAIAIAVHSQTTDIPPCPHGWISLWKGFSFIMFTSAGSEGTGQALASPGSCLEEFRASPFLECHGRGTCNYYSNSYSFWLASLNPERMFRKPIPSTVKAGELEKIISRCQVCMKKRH

GPΔIII derived peptide = molecular target: T6, GPΔIII derived peptide
T6 chain: QRAHGQDLDALFVKVLRSP

[5] = molecular target: T7, rMBPΔII Ser to Ala mutant in position 57
T7 chain: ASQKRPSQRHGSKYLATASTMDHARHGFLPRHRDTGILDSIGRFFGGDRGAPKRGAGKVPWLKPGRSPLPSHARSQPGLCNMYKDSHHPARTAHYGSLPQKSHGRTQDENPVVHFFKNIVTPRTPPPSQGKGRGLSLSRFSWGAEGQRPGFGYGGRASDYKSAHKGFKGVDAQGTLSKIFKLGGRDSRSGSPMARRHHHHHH

[6] = molecular target: T8, native human GP antigen (alpha3(IV)NC1 domain), Q01955
T8 chain: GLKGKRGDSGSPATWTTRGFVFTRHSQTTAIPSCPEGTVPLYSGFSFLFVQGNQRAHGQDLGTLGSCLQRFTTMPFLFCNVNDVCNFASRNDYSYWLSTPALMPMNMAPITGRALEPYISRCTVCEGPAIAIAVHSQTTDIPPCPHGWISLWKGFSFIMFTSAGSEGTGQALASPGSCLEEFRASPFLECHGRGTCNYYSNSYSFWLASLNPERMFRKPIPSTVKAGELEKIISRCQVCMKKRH

[7] = molecular target: T9, rMBP Ser to Ala mutant in position 8, P02686
T9 chain: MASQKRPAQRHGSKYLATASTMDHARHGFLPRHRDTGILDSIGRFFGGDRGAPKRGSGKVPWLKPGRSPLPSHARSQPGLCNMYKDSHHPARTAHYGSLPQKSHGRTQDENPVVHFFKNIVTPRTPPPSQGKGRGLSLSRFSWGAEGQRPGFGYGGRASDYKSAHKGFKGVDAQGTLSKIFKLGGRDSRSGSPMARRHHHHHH

GPpep1 Ala9 = molecular target: T10, GPpep1 Ala9
T10 chain: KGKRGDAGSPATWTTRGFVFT

[8] = molecular target: T11, recombinant 18.5 kDa myelin basic protein lacking exon II (rMBPΔII)
T11 chain: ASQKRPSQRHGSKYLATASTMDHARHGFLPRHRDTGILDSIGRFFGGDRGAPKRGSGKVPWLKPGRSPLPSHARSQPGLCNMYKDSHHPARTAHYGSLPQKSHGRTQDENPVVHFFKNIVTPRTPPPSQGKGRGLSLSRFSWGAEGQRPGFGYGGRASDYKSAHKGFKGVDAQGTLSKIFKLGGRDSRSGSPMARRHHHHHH

[9] = molecular target: T12, rMBPΔII Ser to Ala mutant in position 8
T12 chain: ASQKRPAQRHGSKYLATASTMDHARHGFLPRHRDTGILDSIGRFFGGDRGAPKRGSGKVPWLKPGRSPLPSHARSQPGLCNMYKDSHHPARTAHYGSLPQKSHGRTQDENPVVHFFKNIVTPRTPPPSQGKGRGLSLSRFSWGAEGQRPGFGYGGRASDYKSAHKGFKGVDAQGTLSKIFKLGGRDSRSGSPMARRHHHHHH

[10] = molecular target: the molecule itself; assay: gel filtration HPLC and analytical ultracentrifugation (peak II 220±10 kDa, likely trimers)
Protocol: FIG. 11. rGPBP and rGPBPΔ26 form very active high molecular weight aggregates. About 300 μg of rGPBP (A) or rGPBPΔ26 (B) were subjected to gel filtration HPLC as described under Material and Methods. Vertical arrowheads and numbers respectively indicate the elution profile and molecular mass (kDa) of the molecular weight standards used. Larger aggregates eluted in the void volume (I), and the bulk of the material present in the samples eluted in the fractionation range of the column as a second peak between the 669 and 158 kDa markers (II). Fifteen microliters of the indicated minute fractions were subjected to SDS-PAGE and Coomasie blue staining. Five microliters of the same fractions were in vitro phosphorylated as described in Materials and Methods, and the reaction stopped by boiling in SDS sample buffer. […]
Gel-filtration HPLC. […] The material was eluted from the column at 0.5 ml/min, monitored at 220 nm and minute fractions collected.
rGPBP and rGPBP-26 exist as very active high molecular weight aggregates. Gel filtration analysis of affinity-purified rGPBP or rGPBPΔ26 yielded two chromatographic peaks (I and II), both displaying higher MW than expected for the individual molecular species, as determined by SDS-PAGE studies (89 kDa and 84 kDa, respectively ) (FIG. 11). […] ATP, and analyzed by immunoblot and autoradiography.

B1: GPpep1 (peptide)
peptide: KGKRGDSGSPATWTTRGFVFT
notes: also called 21-residue peptide representing residues 3-23 of the human GP antigen
- binding result [1]: binds

B2: FLAG-tagged recombinant GPBP (rGPBP) (protein)
chain: DYKDDDDKMSDNQSWNSSGSEEDPETESGPPVERCGVLSKWTNYIHGWQDRWVVLKNNALSYYKSEDETEYGCRGSICLSKAVITPHDFDECRFDISVNDSVWYLRAQDPDHRQQWIDAIEQHKTESGYGSESSLRRHGSMVSLVSGASGYSATSTSSFKKGHSLREKLAEMETFRDILCRQVDTLQKYFDACADAVSKDELQRDKVVEDDEDDFPTTRSDGDFLHSTNGNKEKLFPHVTPKGINGIDFKGEAITFKATTAGILATLSHCIELMVKREDSWQKRLDKETEKKRRTEEAYKNAMTELKKKSHFGGPDYEEGPNSLINEEEFFDAVEAALDRQDKIEEQSQSEKVRLHWPTSLPSGDAFSSVGTHRFVQKPYSRSSSMSSIDLVSASDDVHRFSSQVEEMVQNHMTYSLQDVGGDANWQLVVEEGEMKVYRREVEENGIVLDPLKATHAVKGVTGHEVCNYFWNVDVRNDWETTIENFHVVETLADNAIIIYQTHKRVWPASQRDVLYLSVIRKIPALTENDPETWIVCNFSVDHDSAPLNNRCVRAKINVAMICQTLVSPPEGNQEISRDNILCKITYVANVNPGGWAPASVLRAVAKREYPKFLKRFTSYVQEKTAGKPILF
- ^32P incorporation, in situ phosphorylation of blotted substrate [2]: recombinant Ser to Ala mutants displayed no significant reduction in ^32P incorporation
- ^32P incorporation, in vitro phosphorylation (GPpep1): Affinity-purified rGPBP phosphorylates all human-derived material to a different extent
- ^32P incorporation, in situ phosphorylation of blotted substrate [3]: GPBP preferentially phosphorylated MBP
- ^32P incorporation, in vitro phosphorylation [4]: Affinity-purified rGPBP phosphorylates all human-derived material to a different extent
- GPBP autophosphorylation, 5 nmol peptide, Boc chemistry (GPΔIII derived peptide): Boc-based synthetic peptides positively influenced GPBP autophosphorylation
- GPBP autophosphorylation, 5 nmol peptide, Fmoc chemistry (GPΔIII derived peptide): Fmoc-based inhibited GPBP autophosphorylation
- ^32P incorporation, in situ phosphorylation of blotted substrate [5]: recombinant Ser to Ala mutants displayed no significant reduction in ^32P incorporation
- ^32P incorporation, in vitro phosphorylation [6]: Affinity-purified rGPBP phosphorylates all human-derived material to a different extent
- ^32P incorporation, in vitro phosphorylation (native bovine GP antigen): no appreciable ^32P-incorporation was observed in the bovine-derived substrate
- ^32P incorporation, in situ phosphorylation of blotted substrate [7]: recombinant Ser to Ala mutants displayed no significant reduction in ^32P incorporation
- ^32P incorporation, in vitro phosphorylation (GPpep1 Ala9): The lower ^32P incorporation displayed by GPpep1 Ala^9 when compared with GPpep1
- ^32P incorporation, in situ phosphorylation of blotted substrate [8]: little phosphorylation of MBPΔII was observed
- ^32P incorporation, in situ phosphorylation of blotted substrate [9]: recombinant Ser to Ala mutants displayed no significant reduction in ^32P incorporation

B3: FLAG-tagged recombinant GPBP (rGPBP) (enzyme)
chain: DYKDDDDKMSDNQSWNSSGSEEDPETESGPPVERCGVLSKWTNYIHGWQDRWVVLKNNALSYYKSEDETEYGCRGSICLSKAVITPHDFDECRFDISVNDSVWYLRAQDPDHRQQWIDAIEQHKTESGYGSESSLRRHGSMVSLVSGASGYSATSTSSFKKGHSLREKLAEMETFRDILCRQVDTLQKYFDACADAVSKDELQRDKVVEDDEDDFPTTRSDGDFLHSTNGNKEKLFPHVTPKGINGIDFKGEAITFKATTAGILATLSHCIELMVKREDSWQKRLDKETEKKRRTEEAYKNAMTELKKKSHFGGPDYEEGPNSLINEEEFFDAVEAALDRQDKIEEQSQSEKVRLHWPTSLPSGDAFSSVGTHRFVQKPYSRSSSMSSIDLVSASDDVHRFSSQVEEMVQNHMTYSLQDVGGDANWQLVVEEGEMKVYRREVEENGIVLDPLKATHAVKGVTGHEVCNYFWNVDVRNDWETTIENFHVVETLADNAIIIYQTHKRVWPASQRDVLYLSVIRKIPALTENDPETWIVCNFSVDHDSAPLNNRCVRAKINVAMICQTLVSPPEGNQEISRDNILCKITYVANVNPGGWAPASVLRAVAKREYPKFLKRFTSYVQEKTAGKPILF
modifications: contains phosphoserine, phosphothreonine and phosphotyrosine; positions not given
notes: Expressed in Pichia pastoris (pHIL-FLAG-n4') or in 293 cells (pc-FLAG-n4'); ON-GPBP-54m also encodes an initiation Met and a few residues before the FLAG; also called yeast rGPBP; FLAG-n4'
- binding result [10]: binds
